T1: rMcrA-S (UniProt P24200 1-277)
T1 sequence: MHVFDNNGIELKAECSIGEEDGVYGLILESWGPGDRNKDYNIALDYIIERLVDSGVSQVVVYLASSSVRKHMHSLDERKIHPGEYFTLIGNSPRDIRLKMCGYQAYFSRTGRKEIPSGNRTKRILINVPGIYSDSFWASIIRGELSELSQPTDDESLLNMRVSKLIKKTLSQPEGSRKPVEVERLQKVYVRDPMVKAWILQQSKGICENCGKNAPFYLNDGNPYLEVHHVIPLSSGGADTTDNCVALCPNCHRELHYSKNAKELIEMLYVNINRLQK


Each binder was assayed against T1, rMcrA-S (assay: EMSA).

Binder | binding result
C/G hemimethylated HpaII cassette (dsDNA, m5C12 in strand 1 only) DNA 1: GCCTTCAGCGCCGGCGGATCCAGT DNA 2: ACTGGATCCGCCGGCGCTGAAGGC | binds
unmethylated cassette (oligos 7/8) (dsDNA) DNA 1: GCCTTCAGCGCCGGCGGATCCAGT DNA 2: ACTGGATCCGCCGGCGCTGAAGGC | no binding
CGT cassette (dsDNA, m5C9 strand 1, m5C15 strand 2 (M.SssI)) DNA 1: CCCTCTGACGTAGGAGGCTCCTGC DNA 2: GCAGGAGCCTCCTACGTCAGAGGG | no binding
CGC cassette (dsDNA, m5C9 strand 1, m5C15 strand 2 (M.SssI)) DNA 1: CCCTCTGACGCAGGAGGCTCCTGC DNA 2: GCAGGAGCCTCCTGCGTCAGAGGG | no binding
C/A mismatch cassette (dsDNA, m5C12 in strand 1 only) DNA 1: GCCTTCAGCGCCGGCGGATCCAGT DNA 2: ACTGGATCCGCCAGCGCTGAAGGC | no binding

Target: T1, rMcrA-S
Assay: EMSA
Remark: another data set of the same source

Binder | binding result
cassette CCGG, single symmetric m5C in HpaII site (dsDNA, m5C12 in strand 1 and m5C12 in strand 2 (positions from site name)) DNA 1: GCCTTCAGCGCCGGCGGATCCAGT DNA 2: ACTGGATCCGCCGGCGCTGAAGGC | binds

Target: T1, rMcrA-S
Assay: EMSA
Remark: another data set of the same source

Binder | binding result
CCGA cassette (dsDNA, m5C9 strand 1, m5C15 strand 2 (M.SssI)) DNA 1: CCCTCTGCCGAAGGAGGCTCCTGC DNA 2: GCAGGAGCCTCCTTCGGCAGAGGG | binds
TCGA cassette (dsDNA, m5C9 strand 1, m5C15 strand 2 (M.SssI)) DNA 1: CCCTCTGTCGAAGGAGGCTCCTGC DNA 2: GCAGGAGCCTCCTTCGACAGAGGG | binds
TCGG cassette (dsDNA, m5C9 strand 1, m5C15 strand 2 (M.SssI)) DNA 1: CCCTCTGTCGGAGGAGGCTCCTGC DNA 2: GCAGGAGCCTCCTCCGACAGAGGG | binds
CCGG cassette (oligos 17/18) (dsDNA, m5C9 strand 1, m5C15 strand 2 (M.SssI)) DNA 1: CCCTCTGCCGGAGGAGGATCCTGC DNA 2: GCAGGATCCTCCTCCGGCAGAGGG | binds

Target: T1, rMcrA-S
Assay: EMSA
Remark: another data set of the same source

Binder | binding result
GCGA cassette (dsDNA, m5C9 strand 1, m5C15 strand 2 (M.SssI)) DNA 1: CCCTCTGGCGAAGGAGGCTCCTGC DNA 2: GCAGGAGCCTCCTTCGCCAGAGGG | binds
CGG and ACGG cassette (dsDNA, m5C9 strand 1, m5C15 strand 2 (M.SssI)) DNA 1: CCCTCTGACGGAGGAGGCTCCTGC DNA 2: GCAGGAGCCTCCTCCGTCAGAGGG | binds
CGA and ACGA cassette (dsDNA, m5C9 strand 1, m5C15 strand 2 (M.SssI)) DNA 1: CCCTCTGACGAAGGAGGCTCCTGC DNA 2: GCAGGAGCCTCCTTCGTCAGAGGG | binds
GCGG cassette (dsDNA, m5C9 strand 1, m5C15 strand 2 (M.SssI)) DNA 1: CCCTCTGGCGGAGGAGGCTCCTGC DNA 2: GCAGGAGCCTCCTCCGCCAGAGGG | binds

Source: publication PMC2847215
